Data set [1] deals with T1, CTGF (Mus musculus, UniProt P29268).
T1 construct: brain sections of the age-matched wild-type C57BL/6J mice were used as controls; from tissue; host or cells: brain of APP/PS1 transgenic and wild-type C57BL/6J mice (sections, living animal, perfused isolated brain)
T1 sequence (P29268 26-348): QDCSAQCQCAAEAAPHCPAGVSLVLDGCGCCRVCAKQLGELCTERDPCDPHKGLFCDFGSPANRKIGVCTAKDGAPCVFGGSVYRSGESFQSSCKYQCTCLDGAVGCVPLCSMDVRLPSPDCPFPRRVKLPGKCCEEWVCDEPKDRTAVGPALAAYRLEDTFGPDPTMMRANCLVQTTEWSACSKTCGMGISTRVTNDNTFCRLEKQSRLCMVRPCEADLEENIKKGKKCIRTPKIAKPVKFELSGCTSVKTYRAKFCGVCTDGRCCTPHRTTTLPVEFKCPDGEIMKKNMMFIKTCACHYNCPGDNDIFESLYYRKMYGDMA
Put plainly: In vivo NIR-II imaging of brain after DGC injection. More on the design: species or system APP/PS1 and wild-type C57BL/6J mice. The settings on record: APP/PS1 mice. The method, then:
All animal procedures were performed under an approved protocol of the Ethics Committee of Beijing University of Technology, China. Female APP/PS1 mice and age-matched wild-type C57BL/6J mice were shaved before background imaging. For NIR-II imaging in vivo with DGC, the mice (n = 3) were fasted overnight before the experiment and then injected intravenously with DGC (20 mg/kg, 200 μL). NIR-II imaging of the brains was carried out on an In vivo Master (Grand-imaging Technology) equipped with an InGaAs camera C-RED2 (Firstlight) at different time points after injection of DGC (λ ex = 808 nm, 1000 nm longpass (LP) filter (Edmund Optics)). The excitation intensity of the 808 nm laser (Wuhan Grand-imaging Technology) was about […] and the optical images were acquired using an exposure time of 50 ms. Imaging data were analyzed by ImageJ software.

The target of data set [2] is T2, CTGF (Homo sapiens, UniProt P29279).
T2 sequence (P29279 27-349): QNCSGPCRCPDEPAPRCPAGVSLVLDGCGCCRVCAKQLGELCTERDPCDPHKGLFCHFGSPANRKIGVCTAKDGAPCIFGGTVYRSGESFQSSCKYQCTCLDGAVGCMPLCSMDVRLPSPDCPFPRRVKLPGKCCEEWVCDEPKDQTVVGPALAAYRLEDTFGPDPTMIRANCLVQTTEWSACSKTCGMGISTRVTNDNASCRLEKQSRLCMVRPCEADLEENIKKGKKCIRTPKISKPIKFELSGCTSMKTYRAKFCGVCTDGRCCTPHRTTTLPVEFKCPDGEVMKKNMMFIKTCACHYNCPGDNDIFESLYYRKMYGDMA
Put plainly: DAB chromogenic imaging of DGC-labelled human brain sections. More on the design: The brain tissue samples of autopsy-confirmed AD patients were obtained from the Chinese Brain Bank Center; from tissue; host or cells: postmortem human brain sections (hippocampus, cortex) of AD patients and healthy controls. Particulars: 200 μM DGC 4 °C overnight + DAB. The method, then: The brain tissue samples of autopsy-confirmed AD patients were obtained from the Chinese Brain Bank Center (CBBC) and Human Brain Bank, Central South University Xiangya School of Medicine. First, the brain sections were air-dried for 15 min at room temperature, followed by immersion in water. 5% H2O2 was applied for 15 min at room temperature. The sections were washed three times with PBS for 5 min each time. Then, tissue repair was performed using trypsin at a temperature of 37 °C for 5 min and washed three times with PBS. We chose 10% sheep serum to block for a duration of 20 min at 37°. Primary antibodies (CTGF antibody and Aβ antibody) were added to the sections overnight at 4 °C. FITC-labeled Goat Anti-Rabbit IgG (H + L) (1: dilution 1:200, Bioss, Cat#bs-0370R-FITC) was applied and incubated at 37 °C for 20 min in darkness. Subsequent washing steps involved rinsing the sections three times with PBS, each time lasting for 5 min while avoiding exposure to light. DAPI staining was performed, taking care to store the samples away from light during the 5-min procedure. Then observed by the CLSM system. Then, we chose the optimal incubation concentration of DGC (200 μM) was used to determine the conditions using DAB Horseradish Peroxidase Color Development Kit. After the brain sections were co-stained by DGC (200 μM) at 4 °C overnight, a DAB chromogenic agent was added to the brain tissue sections to explore whether DGC can catalyze DAB solutions to produce insoluble brown precipitate to attach the brain tissue sections with an optical microscope. Finally, the brain tissue sections were digested with aqua regia to measure the Au content by the ICP-MS system.

Data set [3] is described as follows: ICP-MS of Au in whole brains of DGC-injected mice. It counts as in vivo, APP/PS1 and WT mice. Particulars: DGC-injected 3-month-old APP/PS1 mice vs WT, n = 3. The method, then: SH-SY5Y cell, maybe resulting in a similar perception of fluorescence intensity.
Reviewer 1: The ICP-MS of the whole brains from DGC-treated normal or APP/PS1 mice should be quantified, not only brain sections.
NIR-II imaging in Fig. 4 were frozen grinded and digested, and the content of Au in the whole brain was measured by ICP-MS. […]
which was consistent with the results of the NIR -II imaging.
Figure R7. The Au content in brains of DGC -injected 3-month-old APP/PS1 mice and the age- […]
hippo? Is there any experiment or literature to support the content of CTGF at different positions in different periods?
Response: According to previous reports, the expression pattern of CTGF was slightly different in several AD mouse models. The homing of DAG peptide was mainly seen in the cortex of the Tg2576 mice and in the hippocampus of the hAPP-J20 mice (Nat.
Commun. 2017, 8, 1403). A marked increase of CTGF levels in the brains of APP/PS1 transgenic mice were also observed, and is mainly located in the cortical (Mol.
(1 picture or pasted object on this page, not shown here)

Ends that are not written are not given here.

In the case of “DGC: CTGF-targeting peptide-coated gold nanocluster: one Au26 gold nanocluster coated by eight DAG cyclic peptides, NIR-II and red fluorescence (CDAGRKQKC; also: cyclic peptide, ring not given here, eight peptides on one Au26 nanocluster via Cys Au-S bonds)”, the “NIR-II fluorescence in the brains” value in data set [1] (24 h after injection) was “still observed”. In addition, the “time of peak brain NIR-II signal” value in data set [1] (after tail vein injection of DGC) is reported as 4 h. The DAB chromogenic intensity is 0.04756 in data set [2] (AD 1, Cortex section); 0.01899 in data set [2] (AD 1, Hippocampus section); 0.04585 in data set [2] (AD 2, Cortex section); 0.0257 in data set [2] (AD 2, Hippocampus section); 0.0065 in data set [2] (HC 1, Cortex section); 0.00154 in data set [2] (HC 1, Hippocampus section). The DAB chromogenic intensity in data set [2] (HC 2, Cortex section) amounted to 0.008159; in data set [2] (HC 2, Hippocampus section), 0.005. The “Au content in whole brain, APP/PS1 vs age-matched WT” value in data set [3] is “more than twice”.

The record behind these values is publication PMC11169542, “A probe for NIR-II imaging and multimodal analysis of early Alzheimer’s disease by targeting CTGF” (Nature Communications, 2024).
